Test results: publication PMC12102759 (2025)

B1: PAIP1 peptide 124-139 (Polyadenylate-binding protein-interacting protein 1), 16-mer library wild type / PABPC1 PABC (PABPC1 PABC domain, residues 544-623) (parent complex)
chain 1: LMSKLSVNAPEFYPSG
chain 2: PLTASMLASAPPQEQKQMLGERLFPLIQAMHPTLAGKITGMLLEIDNSELLHMLESPESLRSKVDEAVAVLQAHQAKEAA
B2: PEX5 peptide 240-255 (Peroxisomal targeting signal 1 receptor), 16-mer library wild type / PEX14 Pex14 (PEX14 PEX14, residues 16-84) (parent complex)
chain 1: AEQWAAEFIQQQGTSD
chain 2: TPGSENVLPREPLIATAVKFLQNSRVRQSPLATRRAFLKKKGLTDEEIDMAFQQSGTAADEPSSLGPAT

Variants of: B1
Test: proteomic peptide phage display deep mutational scan (ProP-PD DMS): M13 P8 16-mer library selected against immobilised GST-tagged bait for four days (rounds), NGS of the eluted pools per day and pseudo-replica; bait immobilised on MaxiSorp plates (10 µg), library pre-cleared on GST, 2 h binding at 4 °C, five washes; one round per day, days 1-4; value from days 2 and 3

Variant | screen value
chain 1 V7Y | 0.000349 average fractional NGS count over selection days 2 and 3 (reads of this peptide / all reads for the bait, averaged over …
chain 1 V7P | 0.00145 average fractional NGS count over selection days 2 and 3 (reads of this peptide / all reads for the bait, averaged over …
chain 1 S15F | 0.00282 average fractional NGS count over selection days 2 and 3 (reads of this peptide / all reads for the bait, averaged over …
chain 1 S15P | 0.000374 average fractional NGS count over selection days 2 and 3 (reads of this peptide / all reads for the bait, averaged over …
chain 1 S15R | 0.00163 average fractional NGS count over selection days 2 and 3 (reads of this peptide / all reads for the bait, averaged over …
chain 1 S15G | 0.00184 average fractional NGS count over selection days 2 and 3 (reads of this peptide / all reads for the bait, averaged over …
chain 1 S15M | 0.00153 average fractional NGS count over selection days 2 and 3 (reads of this peptide / all reads for the bait, averaged over …
chain 1 S15Q | 0.000451 average fractional NGS count over selection days 2 and 3 (reads of this peptide / all reads for the bait, averaged over …
chain 1 S6N | 0.000518 average fractional NGS count over selection days 2 and 3 (reads of this peptide / all reads for the bait, averaged over …
chain 1 S6T | 0.0012 average fractional NGS count over selection days 2 and 3 (reads of this peptide / all reads for the bait, averaged over …
chain 1 S6W | 0.000475 average fractional NGS count over selection days 2 and 3 (reads of this peptide / all reads for the bait, averaged over …
chain 1 Y13V | 0.000146 average fractional NGS count over selection days 2 and 3 (reads of this peptide / all reads for the bait, averaged over …
chain 1 Y13E | 0.00175 average fractional NGS count over selection days 2 and 3 (reads of this peptide / all reads for the bait, averaged over …
chain 1 Y13I | 0.021 average fractional NGS count over selection days 2 and 3 (reads of this peptide / all reads for the bait, averaged over …
chain 1 Y13M | 0.000346 average fractional NGS count over selection days 2 and 3 (reads of this peptide / all reads for the bait, averaged over …
chain 1 Y13D | 0.00104 average fractional NGS count over selection days 2 and 3 (reads of this peptide / all reads for the bait, averaged over …
chain 1 Y13S | 0.000669 average fractional NGS count over selection days 2 and 3 (reads of this peptide / all reads for the bait, averaged over …
chain 1 Y13K | 0.00389 average fractional NGS count over selection days 2 and 3 (reads of this peptide / all reads for the bait, averaged over …
chain 1 Y13R | 0.000336 average fractional NGS count over selection days 2 and 3 (reads of this peptide / all reads for the bait, averaged over …
chain 1 P14V | 0.000836 average fractional NGS count over selection days 2 and 3 (reads of this peptide / all reads for the bait, averaged over …
chain 1 P14R | 0.00035 average fractional NGS count over selection days 2 and 3 (reads of this peptide / all reads for the bait, averaged over …
chain 1 F12W | 0.00452 average fractional NGS count over selection days 2 and 3 (reads of this peptide / all reads for the bait, averaged over …
chain 1 K4L | 0.0004 average fractional NGS count over selection days 2 and 3 (reads of this peptide / all reads for the bait, averaged over …
chain 1 K4A | 0.00111 average fractional NGS count over selection days 2 and 3 (reads of this peptide / all reads for the bait, averaged over …
chain 1 K4N | 0.0102 average fractional NGS count over selection days 2 and 3 (reads of this peptide / all reads for the bait, averaged over …
chain 1 K4Y | 0.00101 average fractional NGS count over selection days 2 and 3 (reads of this peptide / all reads for the bait, averaged over …
chain 1 K4E | 0.000553 average fractional NGS count over selection days 2 and 3 (reads of this peptide / all reads for the bait, averaged over …

Variant | screen value
chain 1 K4P | 0.0037 average fractional NGS count over selection days 2 and 3 (reads of this peptide / all reads for the bait, averaged over …
chain 1 K4T | 0.00284 average fractional NGS count over selection days 2 and 3 (reads of this peptide / all reads for the bait, averaged over …
chain 1 K4H | 0.00136 average fractional NGS count over selection days 2 and 3 (reads of this peptide / all reads for the bait, averaged over …
chain 1 N8F | 0.00423 average fractional NGS count over selection days 2 and 3 (reads of this peptide / all reads for the bait, averaged over …
chain 1 N8W | 0.000471 average fractional NGS count over selection days 2 and 3 (reads of this peptide / all reads for the bait, averaged over …
chain 1 N8S | 0.00131 average fractional NGS count over selection days 2 and 3 (reads of this peptide / all reads for the bait, averaged over …
chain 1 S3N | 0.000537 average fractional NGS count over selection days 2 and 3 (reads of this peptide / all reads for the bait, averaged over …
chain 1 S3A | 0.00075 average fractional NGS count over selection days 2 and 3 (reads of this peptide / all reads for the bait, averaged over …
chain 1 S3M | 0.000284 average fractional NGS count over selection days 2 and 3 (reads of this peptide / all reads for the bait, averaged over …
chain 1 S3T | 0.00109 average fractional NGS count over selection days 2 and 3 (reads of this peptide / all reads for the bait, averaged over …
chain 1 S3K | 0.000637 average fractional NGS count over selection days 2 and 3 (reads of this peptide / all reads for the bait, averaged over …
chain 1 S3Q | 0.00262 average fractional NGS count over selection days 2 and 3 (reads of this peptide / all reads for the bait, averaged over …
chain 1 E11M | 0.000642 average fractional NGS count over selection days 2 and 3 (reads of this peptide / all reads for the bait, averaged over …
chain 1 G16F | 0.00158 average fractional NGS count over selection days 2 and 3 (reads of this peptide / all reads for the bait, averaged over …
chain 1 G16W | 0.000405 average fractional NGS count over selection days 2 and 3 (reads of this peptide / all reads for the bait, averaged over …
chain 1 G16M | 0.00176 average fractional NGS count over selection days 2 and 3 (reads of this peptide / all reads for the bait, averaged over …
chain 1 G16E | 0.000703 average fractional NGS count over selection days 2 and 3 (reads of this peptide / all reads for the bait, averaged over …
chain 1 G16I | 0.00186 average fractional NGS count over selection days 2 and 3 (reads of this peptide / all reads for the bait, averaged over …
chain 1 G16R | 0.000806 average fractional NGS count over selection days 2 and 3 (reads of this peptide / all reads for the bait, averaged over …
chain 1 P10M | 0.000583 average fractional NGS count over selection days 2 and 3 (reads of this peptide / all reads for the bait, averaged over …
chain 1 P10L | 0.00239 average fractional NGS count over selection days 2 and 3 (reads of this peptide / all reads for the bait, averaged over …
chain 1 P10S | 0.00454 average fractional NGS count over selection days 2 and 3 (reads of this peptide / all reads for the bait, averaged over …
chain 1 P10Y | 0.000572 average fractional NGS count over selection days 2 and 3 (reads of this peptide / all reads for the bait, averaged over …
chain 1 M2A | 0.000739 average fractional NGS count over selection days 2 and 3 (reads of this peptide / all reads for the bait, averaged over …
chain 1 M2W | 0.000144 average fractional NGS count over selection days 2 and 3 (reads of this peptide / all reads for the bait, averaged over …
chain 1 M2P | 0.000581 average fractional NGS count over selection days 2 and 3 (reads of this peptide / all reads for the bait, averaged over …

Variants of: B2
Test: as above

Variant | screen value
chain 1 F8W | 0.00184 average fractional NGS count over selection days 2 and 3 (reads of this peptide / all reads for the bait, averaged over …
chain 1 S15T | 0.00362 average fractional NGS count over selection days 2 and 3 (reads of this peptide / all reads for the bait, averaged over …
chain 1 S15L | 0.00083 average fractional NGS count over selection days 2 and 3 (reads of this peptide / all reads for the bait, averaged over …
chain 1 S15R | 0.00217 average fractional NGS count over selection days 2 and 3 (reads of this peptide / all reads for the bait, averaged over …
chain 1 S15V | 0.000997 average fractional NGS count over selection days 2 and 3 (reads of this peptide / all reads for the bait, averaged over …
chain 1 S15Y | 0.000382 average fractional NGS count over selection days 2 and 3 (reads of this peptide / all reads for the bait, averaged over …
chain 1 S15G | 0.00221 average fractional NGS count over selection days 2 and 3 (reads of this peptide / all reads for the bait, averaged over …
chain 1 A1I | 0.000927 average fractional NGS count over selection days 2 and 3 (reads of this peptide / all reads for the bait, averaged over …
chain 1 A1Q | 0.00549 average fractional NGS count over selection days 2 and 3 (reads of this peptide / all reads for the bait, averaged over …
chain 1 A1P | 0.000938 average fractional NGS count over selection days 2 and 3 (reads of this peptide / all reads for the bait, averaged over …
chain 1 A1R | 0.000918 average fractional NGS count over selection days 2 and 3 (reads of this peptide / all reads for the bait, averaged over …
chain 1 A1H | 0.0701 average fractional NGS count over selection days 2 and 3 (reads of this peptide / all reads for the bait, averaged over …
chain 1 E2Y | 0.00378 average fractional NGS count over selection days 2 and 3 (reads of this peptide / all reads for the bait, averaged over …
chain 1 E2M | 0.00435 average fractional NGS count over selection days 2 and 3 (reads of this peptide / all reads for the bait, averaged over …
chain 1 E2S | 0.000804 average fractional NGS count over selection days 2 and 3 (reads of this peptide / all reads for the bait, averaged over …
chain 1 E2H | 0.00822 average fractional NGS count over selection days 2 and 3 (reads of this peptide / all reads for the bait, averaged over …
chain 1 E2D | 0.00048 average fractional NGS count over selection days 2 and 3 (reads of this peptide / all reads for the bait, averaged over …
chain 1 Q10W | 0.0034 average fractional NGS count over selection days 2 and 3 (reads of this peptide / all reads for the bait, averaged over …
chain 1 Q10N | 0.00173 average fractional NGS count over selection days 2 and 3 (reads of this peptide / all reads for the bait, averaged over …
chain 1 Q10V | 0.00204 average fractional NGS count over selection days 2 and 3 (reads of this peptide / all reads for the bait, averaged over …
chain 1 Q10E | 0.0048 average fractional NGS count over selection days 2 and 3 (reads of this peptide / all reads for the bait, averaged over …
chain 1 Q10Y | 0.00306 average fractional NGS count over selection days 2 and 3 (reads of this peptide / all reads for the bait, averaged over …
